Data as given in PMC7280789, “Isotype Switching Converts Anti-CD40 Antagonism to Agonism to Elicit Potent Antitumor Activity” (Cancer Cell, 2020).
Values belong to the binder of their own block, whether it stands above or below them.

Key:
[1] = target: T1, full-length hCD40 expressed on CHO-k1 cells (Homo sapiens, UniProt P25942); assay: flow cytometry on cells; CHO-k1 cells expressing full-length hCD40 or truncated variants CRD2-4 or CRD3-4 incubated with 10 μg/mL anti-CD40 mAb; bound mAb detected by anti-human Fc-PE; details: one partner purified
T1 construct: CD40, human; results call it the full-length CD40 molecule; methods: wild-type full-length extracellular (EC) domain (CRD1-4) cloned into pCIpuro that contains the CD40 transmembrane domain for membrane anchoring; also called full-length CD40 molecule; CRD1-4; source: CHO-k1, stably transfected (pCIpuro), on cells

[2] = target: T2, hCD40 truncated variant CRD3-4 expressed on CHO-k1 cells (Homo sapiens, UniProt P25942, point mutant); assay: as above; details: one partner purified
T2 construct: CD40, human, truncated variant CRD3-4 (lacks CRD1 and CRD2), with the CD40 transmembrane domain of the vector; source: CHO-k1, stably transfected (pCIpuro), on cells

[3] = target: T3, hCD40 truncated variant CRD2-4 expressed on CHO-k1 cells (Homo sapiens, UniProt P25942, point mutant); assay: as above; details: one partner purified
T3 construct: CD40, human, truncated variant CRD2-4 (lacks CRD1), with the CD40 transmembrane domain of the vector; source: CHO-k1, stably transfected (pCIpuro), on cells

[4] = target: T4, His-tagged recombinant soluble full-length extracellular domain (EC) of hCD40 (Homo sapiens, UniProt P25942); assay: far-Western, overlay or dot blot; western blot: His-tagged recombinant CD40 proteins run on 18% polyacrylamide gels, transferred to nitrocellulose, incubated with the anti-CD40 mAb at 4°C overnight, detected with goat anti-human IgG-HRP; details: both partners purified
T4 construct: CD40, human, wild-type full-length extracellular (EC) domain (CRD1-4); Used in the western blot and, as 'hCD40 EC domain', in the SEC/SEC-SAXS complex with 341G2 F(ab); also called hCD40 EC domain; CD40EC; source: FreeStyle 293F, transfected (pcDNA3.1), purified from supernatant (Ni-NTA)

CD40 on Ramos cells = target: T5, CD40 on Ramos cells (Homo sapiens (Ramos cells), UniProt P25942); assay: flow cytometry on cells; Ramos cells incubated with a fixed concentration of CD40L and various concentrations of anti-CD40 mAbs; remaining bound CD40L detected by anti-FLAG-APC; details: one partner purified
T5 construct: CD40 on the surface of Ramos cells; also called CD40-expressing Ramos cells; source: endogenous, on Ramos cells

[5] = target: T4, His-tagged recombinant soluble …; assay: SEC; 341G2 F(ab) and hCD40 EC domain mixed at a 1:1 molar ratio for 1 hour, complex purified by SEC; then SEC-SAXS on Superdex 200 increase 3.2/200 in PBS, 20°C; details: both partners purified
[6] = target: T6, hCD40 (immobilised for SPR) (Homo sapiens, UniProt P25942); assay: SPR; Biacore T100; hCD40 immobilised on a CM5 chip by amine coupling; mAbs injected at 250, 50, 10, 2, 0.4 and 0 nM in HBS-EP+, 30 μL/min, 300 s association, 300 s dissociation; 1:1 Binding model; details: both partners purified
T6 construct: CD40, human
T6 sequence (P25942 21-277): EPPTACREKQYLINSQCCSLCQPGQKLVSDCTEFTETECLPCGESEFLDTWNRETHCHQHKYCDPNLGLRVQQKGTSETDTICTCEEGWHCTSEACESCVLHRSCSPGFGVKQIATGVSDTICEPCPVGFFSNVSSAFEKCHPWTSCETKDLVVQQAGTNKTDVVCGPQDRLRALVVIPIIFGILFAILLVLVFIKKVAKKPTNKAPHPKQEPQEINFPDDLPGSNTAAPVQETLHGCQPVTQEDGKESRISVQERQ

T4 sequence (P25942 21-193): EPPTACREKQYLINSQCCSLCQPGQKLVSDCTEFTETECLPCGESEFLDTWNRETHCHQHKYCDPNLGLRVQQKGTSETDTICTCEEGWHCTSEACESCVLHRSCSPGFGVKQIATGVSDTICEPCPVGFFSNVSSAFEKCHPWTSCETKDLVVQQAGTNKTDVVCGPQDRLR
T5 sequence (P25942 21-277): as the sequence (P25942 21-277) above
T3 sequence (P25942 whole entry, looked up, change not shown, the tested form may be a part): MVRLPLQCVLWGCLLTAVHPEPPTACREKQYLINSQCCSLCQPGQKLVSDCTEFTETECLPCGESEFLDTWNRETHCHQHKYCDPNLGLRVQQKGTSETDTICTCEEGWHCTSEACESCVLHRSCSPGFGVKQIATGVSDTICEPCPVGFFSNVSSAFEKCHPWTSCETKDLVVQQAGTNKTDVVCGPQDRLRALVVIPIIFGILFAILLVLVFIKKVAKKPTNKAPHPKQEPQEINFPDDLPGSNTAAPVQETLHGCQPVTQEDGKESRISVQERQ
T1 sequence (P25942 whole entry, looked up, the tested form may be a part): as the sequence (P25942 whole entry, looked up, change not shown, the tested form may be a part) above
T2 sequence (P25942 whole entry, looked up, change not shown, the tested form may be a part): as above

binding result [5]: binds
B3: 341G2 F(ab) (Fab, V domains shown)
VH: QVQLQQSGPGLVKPSQTLSLTCAISGDSVSSNSATWNWIRQSPSRDLEWLGRTYYRSKWYRDYVGSVKSRIIINPDTSNNQFSLQLNSVTPEDTAIYYCTRAQWLGGDYPYYYSMDVWGQGTTVTVSS
VL: EIVLTQSPATLSLSPGERATLSCRASQSVSSYLAWYQQKPGQAPRLLIYDASNRATGIPARFSGSGSGTDFTLTISSLEPEDFAVYYCQQRSNTFGPGTKVDIK
notes: may stand in the SASBDB entry of the CD40-341G2 F(ab) complex; may stand in SASBDB SASDHN8; also called F(ab) fragment of 341G2 hIgG1; source: digestion of 341G2 hIgG1 with papain-agarose, protein A depletion of IgG1 and Fc, purified by SEC

binding result [6]: binds | binding result (CD40 on Ramos cells): binds
B4: 341G2 hIgG4 (parental 341G2) (antibody, V domains shown)
VH: QVQLQQSGPGLVKPSQTLSLTCAISGDSVSSNSATWNWIRQSPSRDLEWLGRTYYRSKWYRDYVGSVKSRIIINPDTSNNQFSLQLNSVTPEDTAIYYCTRAQWLGGDYPYYYSMDVWGQGTTVTVSS
VL: EIVLTQSPATLSLSPGERATLSCRASQSVSSYLAWYQQKPGQAPRLLIYDASNRATGIPARFSGSGSGTDFTLTISSLEPEDFAVYYCQQRSNTFGPGTKVDIK
notes: 341G2 heavy chain variable domain; human IgG4 heavy chain constant region (pEE6.4 vector encoding the isotype); may stand in SASBDB SASDHN8; IgG4; also called 341G2 h4; bleselumab; source: produced either from hybridoma cells or by transient expression in CHO cells, purified on protein A columns; copies: 2 + 2

The next lines start with the binder.

B1: 341G2 (anti-CD40 mAb; isotype not stated for these experiments) (antibody, V domains shown)
VH: QVQLQQSGPGLVKPSQTLSLTCAISGDSVSSNSATWNWIRQSPSRDLEWLGRTYYRSKWYRDYVGSVKSRIIINPDTSNNQFSLQLNSVTPEDTAIYYCTRAQWLGGDYPYYYSMDVWGQGTTVTVSS
VL: EIVLTQSPATLSLSPGERATLSCRASQSVSSYLAWYQQKPGQAPRLLIYDASNRATGIPARFSGSGSGTDFTLTISSLEPEDFAVYYCQQRSNTFGPGTKVDIK
notes: 341G2 heavy chain; 341G2 light chain; also called bleselumab; source: produced either from hybridoma cells or by transient expression in CHO cells, purified on protein A columns; copies: 2 + 2
binding result [1]: binds | binding result [2]: no binding (tested: 10 μg/mL) | binding result [3]: no binding (tested: 10 μg/mL) | binding result [4]: binds

B2: 341G2 hIgG1 (antibody, V domains shown)
VH: QVQLQQSGPGLVKPSQTLSLTCAISGDSVSSNSATWNWIRQSPSRDLEWLGRTYYRSKWYRDYVGSVKSRIIINPDTSNNQFSLQLNSVTPEDTAIYYCTRAQWLGGDYPYYYSMDVWGQGTTVTVSS
VL: EIVLTQSPATLSLSPGERATLSCRASQSVSSYLAWYQQKPGQAPRLLIYDASNRATGIPARFSGSGSGTDFTLTISSLEPEDFAVYYCQQRSNTFGPGTKVDIK
notes: 341G2 heavy chain variable domain; human IgG1 heavy chain constant region (pEE6.4 vector encoding the isotype); may stand in SASBDB SASDHN8; IgG1; also called 341G2 h1; hIgG1 variant of 341G2; source: produced either from hybridoma cells or by transient expression in CHO cells, purified on protein A columns; copies: 2 + 2
binding result (CD40 on Ramos cells): binds
